Reference: paper doi:10.1101/2021.12.31.474340

Target: guanylyl cyclase-A (GC-A), human, stably expressed in QBIHEK293A cells (human) (UniProt P16066)
Assay: radioligand binding

Sequence of UniProt P16066 (P16066 33-473): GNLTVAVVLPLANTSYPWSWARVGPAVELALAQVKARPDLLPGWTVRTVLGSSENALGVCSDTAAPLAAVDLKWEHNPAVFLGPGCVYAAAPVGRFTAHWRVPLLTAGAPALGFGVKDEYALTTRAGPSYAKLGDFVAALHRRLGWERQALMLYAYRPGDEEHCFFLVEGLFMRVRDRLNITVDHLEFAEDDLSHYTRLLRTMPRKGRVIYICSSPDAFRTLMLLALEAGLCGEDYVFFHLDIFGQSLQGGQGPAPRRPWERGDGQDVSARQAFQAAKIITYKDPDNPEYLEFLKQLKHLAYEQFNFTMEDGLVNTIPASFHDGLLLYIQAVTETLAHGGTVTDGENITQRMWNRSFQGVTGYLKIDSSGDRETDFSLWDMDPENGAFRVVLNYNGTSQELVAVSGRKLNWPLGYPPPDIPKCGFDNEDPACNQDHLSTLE

## ^125I-ANP (peptide)
  increase of binding with increasing concentrations of compound #20: 71%
  increase of overall binding with 10 uM compound #20 against control: 60%
